Data reported in patent publication US20210070876A1 (LES LABORATOIRES SERVIER, published 2021).

What was measured:
[1] = biological target: T1, human CD73 ECD fused C-terminally to human IgG1 Fc (human, UniProt P21589 27-549, limits assumed); test: SPR, Fc-tagged CD73 ECD captured, Fab injected
T1 construct: Expressed in ExpiCHO; also called Hs CD73 ECD; Fc-tagged antigen
T1 sequence: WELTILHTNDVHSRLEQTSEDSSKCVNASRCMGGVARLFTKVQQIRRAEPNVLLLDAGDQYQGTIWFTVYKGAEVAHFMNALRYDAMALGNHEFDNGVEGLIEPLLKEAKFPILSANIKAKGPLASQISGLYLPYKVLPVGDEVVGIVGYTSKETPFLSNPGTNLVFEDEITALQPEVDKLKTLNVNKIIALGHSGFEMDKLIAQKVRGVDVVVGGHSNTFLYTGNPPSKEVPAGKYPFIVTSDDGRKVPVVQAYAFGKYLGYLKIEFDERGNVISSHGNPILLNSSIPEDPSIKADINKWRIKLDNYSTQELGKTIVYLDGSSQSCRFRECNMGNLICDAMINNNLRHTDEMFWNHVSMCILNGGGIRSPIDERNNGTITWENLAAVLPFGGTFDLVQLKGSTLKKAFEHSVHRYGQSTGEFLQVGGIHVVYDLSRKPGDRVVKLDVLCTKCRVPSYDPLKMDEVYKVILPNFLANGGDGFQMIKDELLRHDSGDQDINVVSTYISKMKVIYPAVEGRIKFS
Experimental: (§1) Kinetic binding analysis of anti-CD73 mAbs and Fab fragments was performed by Surface Plasmon Resonance (SPR), using a Continuous Flow Microspotter (CFM, Wasatch Microfluidics, Salt Lake City, US) combined with an IBIS MX96 SPR instrument (IBIS Technologies, The Netherlands). CD73 cDNAs coding for the extracellular domains of human and cynomolgus CD73 were synthesized and each cloned into a vector containing a CMV promoter and either a C-terminal 6× histidine sequence (SEQ ID NO: 45) for His-tagged CD73 ECD, or a human IgG1 Fc sequence (AA P101-K330), resulting in fusion of IgG1 Fc C-terminally to the cloned CD73 ECD. The His-tagged and Fc-fusion constructs were transiently expressed using an ExpiCHO™ expression system and purified either by standard Ni-NTA chromatography or standard MabSelect™ SuRe™ procedures, respectively. Anti-CD73 Fab fragments were generated by digesting full-length IgG1 antibodies with GingisKHAN enzyme, using a kit provided by Genovis (Sweden). Affinities of Fab fragments were measured by capturing Fc-tagged antigens on a G-a-hu-IgG Fc SensEye® for 15 minutes using the CFM. After spotting, the SensEye® was positioned in the IBIS MX96 biosensor and immobilized antigens were fixed by SensEye FixIt kit. Kinetic analysis was performed by injecting monomeric Fab fragments at increasing concentrations from 0.8 nM to 300 nM. After each cycle of Fab fragment injection, the surface was regenerated by 10 mM glycine pH 3, 10% glycerol. Fab association was performed for 15 minutes and antigen dissociation was performed for 15 minutes. Affinities of full-length monoclonal antibodies (mAbs) were measured by capturing mAbs on a G-a-hu-IgG Fc SensEye® (Ssens BV, The Netherlands) for 15 minutes using a Continuous Flow Microspotter (CFM, Wasatch Microfluidics, Salt Lake City, US). After spotting, the SensEye was docked in the IBIS MX96 and spotted mAbs were fixed by SensEye FixIt kit (Ssens BV, The Netherlands). Kinetic analysis was performed by applying a kinetic titration series injecting increasing concentrations of His-tagged antigens from 0.16 nM to 10 nM as 2-fold dilutions. The surface was regenerated before the next cycle of cynomolgus antigen injections by 100 mM H₃PO₄, pH 3. MAb association was performed for 15 minutes and antigen dissociation was performed for 45 minutes.

[2] = biological target: T2, cynomolgus CD73 ECD fused C-terminally to human IgG1 Fc (cynomolgus monkey (Macaca …, UniProt A0A2K5V5U7 27-549)); test: SPR, Fc-tagged CD73 ECD captured, Fab injected
T2 construct: also called Cy CD73 ECD; Fc-tagged antigen; not shown: Human IgG1 Fc (printed as AA P101-K330) fused to the C-terminus of the ECD, and any linker
T2 sequence: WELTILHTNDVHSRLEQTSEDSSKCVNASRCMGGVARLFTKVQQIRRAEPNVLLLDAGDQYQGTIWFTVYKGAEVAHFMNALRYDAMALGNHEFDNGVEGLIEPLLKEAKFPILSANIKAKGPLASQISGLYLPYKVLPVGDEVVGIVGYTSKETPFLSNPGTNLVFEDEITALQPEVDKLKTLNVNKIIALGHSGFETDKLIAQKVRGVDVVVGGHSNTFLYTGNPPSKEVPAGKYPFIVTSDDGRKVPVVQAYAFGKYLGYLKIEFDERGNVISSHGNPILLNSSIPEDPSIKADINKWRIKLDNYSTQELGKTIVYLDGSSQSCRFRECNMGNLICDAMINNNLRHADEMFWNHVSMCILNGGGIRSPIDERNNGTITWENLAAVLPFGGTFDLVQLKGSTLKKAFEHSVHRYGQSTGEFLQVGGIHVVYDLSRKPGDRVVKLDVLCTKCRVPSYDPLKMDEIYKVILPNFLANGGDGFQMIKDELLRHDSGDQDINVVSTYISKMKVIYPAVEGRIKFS
Experimental: as §1

[3] = biological target: T3, His-tagged human CD73 ECD (human, UniProt P21589 27-549); test: SEC-MALS, mAb:CD73 1:1
T3 construct: runs as a homodimer of about 124-125 kDa in SEC-MALS; also called CD73-His; CD73-His ECD antigen
T3 sequence: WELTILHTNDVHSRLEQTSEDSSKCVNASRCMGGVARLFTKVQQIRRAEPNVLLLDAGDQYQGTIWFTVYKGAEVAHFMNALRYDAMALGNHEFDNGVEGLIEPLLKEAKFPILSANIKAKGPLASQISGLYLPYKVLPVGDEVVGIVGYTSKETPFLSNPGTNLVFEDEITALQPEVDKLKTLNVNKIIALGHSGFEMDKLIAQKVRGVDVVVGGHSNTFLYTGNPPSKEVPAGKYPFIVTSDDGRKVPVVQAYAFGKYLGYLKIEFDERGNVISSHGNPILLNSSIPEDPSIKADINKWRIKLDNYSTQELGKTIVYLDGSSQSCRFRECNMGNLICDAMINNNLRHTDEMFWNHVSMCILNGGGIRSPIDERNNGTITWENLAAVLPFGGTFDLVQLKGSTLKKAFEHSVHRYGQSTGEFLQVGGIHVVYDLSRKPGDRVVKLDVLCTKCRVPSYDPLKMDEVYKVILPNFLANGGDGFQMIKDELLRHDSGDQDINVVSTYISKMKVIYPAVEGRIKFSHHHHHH
Experimental: (§2) Anti-CD73 antibodies and His-tagged CD73 were analyzed in different ratios as well as individually to analyze the size of complexes formed between CD73 homodimer and anti-CD73 antibodies. Samples were prepared by mixing […] of CD73-His with 900, 450, 90 or 0 μmol of antibody diluted into PBS, pH 7.4. Samples were incubated for 30 min at room temperature followed by separation using a UHPLC UltiMate 3000 (Thermo Scientific) and SEC X-Bridge column (Waters) at a flow rate of 1.2 mL/min. Sample running buffer was 0.01 M Citrate, 250 mM L-Arginine.HCl, pH 6.0. Following HPLC separation, all samples were analyzed using a MiniDAWN TREOS MALS detector (Wyatt) and Optilab T-rEX refractive index detector (Wyatt). Data plots were generated using Graph Pad Prism.

[4] = biological target: T3, His-tagged human CD73 ECD; test: SEC-MALS, mAb:CD73 0.1:1
Experimental: as §2

[5] = biological target: T3, His-tagged human CD73 ECD; test: SEC-MALS, mAb:CD73 0.5:1
Experimental: as §2

[6] = biological target: T4, His-tagged cynomolgus CD73 ECD (cynomolgus monkey (Macaca fascicularis)); test: SPR, mAb captured, His-tagged CD73 ECD injected
T4 chain: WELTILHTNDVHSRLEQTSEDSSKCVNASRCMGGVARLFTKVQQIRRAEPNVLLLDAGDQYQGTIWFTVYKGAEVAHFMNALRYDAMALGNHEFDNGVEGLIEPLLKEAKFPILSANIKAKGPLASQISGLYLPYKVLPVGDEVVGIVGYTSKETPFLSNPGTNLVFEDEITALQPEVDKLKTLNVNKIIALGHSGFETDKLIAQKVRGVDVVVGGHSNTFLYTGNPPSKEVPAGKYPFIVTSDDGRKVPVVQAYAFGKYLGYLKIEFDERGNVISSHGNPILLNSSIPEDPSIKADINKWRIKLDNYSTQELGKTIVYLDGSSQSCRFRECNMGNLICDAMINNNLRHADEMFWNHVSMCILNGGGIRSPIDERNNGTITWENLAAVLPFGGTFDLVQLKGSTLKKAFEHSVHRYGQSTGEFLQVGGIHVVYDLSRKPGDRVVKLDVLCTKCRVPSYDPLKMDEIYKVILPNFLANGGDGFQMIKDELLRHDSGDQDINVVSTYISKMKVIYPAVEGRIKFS
Experimental: as §1

[7] = biological target: T3, His-tagged human CD73 ECD; test: SPR, mAb captured, His-tagged CD73 ECD injected
Experimental: as §1

B1: 21127 Fab fragment (Fab, V domains shown, not shown: small tags and cut ends)
VH: EVQLVESGGGLVQPGRSLRLSCAASGFTFDDFAMHWVRQAPGKGLEWVSGISWNSGNIGYADSVKGRFTISRDNAKNSLYLQMNSLRAEDTALYYCAKDKSGSPYYYYGMDVWGQGTMVTVSS
VL: DIQMTQSPSSVSASVGDRVTITCRATQGISRRLAWYQQKPGKAPKLLIYAASSLQSGVPSRFSGSGSGTDFTLTISSLQPEDFATYYCQQANSFPLTFGGGTKVEIKR
notes: Made by digesting the full-length IgG1 with GingisKHAN enzyme (Genovis)
[1]
  Kd: 54.6 nM
[2]
  Kd: 55.3 nM

B2: antibody 21163 (antibody, human IgG1, kappa, L234A L235A, V domains shown)
VH: EVQLVESGGGLVQPGGSLRLSCAASGFSFSTYWMNWVRQAPGKGLEWVANIKQDGSEKYYVDSVKGRFTISRDNAKNSLYLQMNSLRAEDTAVYYCARDISSSWFYYYGMDVWGQGTTVTVSS
VL: DIQLTQSPSFLSASVGDRVTITCRASQGISSYLAWYQQKPGKAPKLLIYAASTLQSGVPSRFSGSGSGTEFTLTISSLQPEDFATYYCQQLNSYPPTFGGGTKVEIKR
notes: Fully human IgG1-LALA (L234A/L235A), kappa
[3]
  molecular mass of complex, Peak 2 (MW, kDa): 280 kDa
[4]
  molecular mass of complex, Peak 2 (MW, kDa): 279 kDa
[5]
  molecular mass of complex, Peak 2 (MW, kDa): 278 kDa
[6]
  Kd: 0.66 nM
  koff: 6.2e-05 s⁻¹
  kon: 100000 M⁻¹ s⁻¹
[7]
  Kd: 0.91 nM
  koff: 5.5e-05 s⁻¹
  kon: 65000 M⁻¹ s⁻¹

B3: antibody 21046 (antibody, human IgG1, kappa, L234A L235A, V domains shown)
VH: EVQLVESGGGLVQPGRSLRLSCVASGFTFDDYAMHWVRQAPGKGLEWVSGISWNSGSIGYADSVKGRFTISRDNAKNSLYLQMNSLRAEDTAFYYCAQGGYAILTALEYWGQGTLVTVSS
VL: DIQMTQSPSSLSASVGDRVTITCRASQGISNYLAWFQQKPGKAPKSLIYAASSLQSGVPSKFSGSGSGTDFTLTISSLQPEDFATYYCQQYNSYPLTFGGGTKVEIKR
notes: as for B2
[3]
  molecular mass of complex, Peak 2 (MW, kDa): 382 kDa
[4]
  molecular mass of complex, Peak 2 (MW, kDa): 969 kDa
[5]
  molecular mass of complex, Peak 2 (MW, kDa): 199 kDa
[6]
  Kd: 0.05 nM
  koff: 1.1e-05 s⁻¹
  kon: 210000 M⁻¹ s⁻¹
[7]
  Kd: 0.04 nM
  koff: 8.3e-06 s⁻¹
  kon: 190000 M⁻¹ s⁻¹
